The values below come from article PMC4931249.

In this experiment the target is WT BG505 SOSIP.664 gp140 trimer (HIV-1 clade-A BG505). Description: negative-stain EM.

A word on the stoichiometry N: it is the number of molecules, sites or subunits per partner or assembly.

Turning to “WT BG505 SOSIP.664 gp140 trimer (complex)”, the stoichiometry N worked out at 3.
